Measured values reported in publication PMC10253715.

Molecular target: CD9-EGFP-FRB (UniProt P21926)

mCherry-FKBP12-luciferase
luciferase activity in EVs released from co-transfected HEK-293 cells, rapamycin dose series for 24 h (rapamycin is the bridging compound): 3 fold
